Source: US20200199081
Numbering of substitutions follows the chain as printed.

What was measured:
[1] = molecular target: HA-tagged NRASQ61R (HA-NRASQ61R)
[2] = molecular target: HA-tagged wild-type NRAS (HA-NRASWT)

B1: Flag-tagged STK19D89N (protein)
chain: MQKWFSAFDDAIIQRQWRANPSRGGGGVSFTKEVDTNVATGAPPRRQRVPGRACPWREPIRGRRGARPGGGDAGGTPGETVRHCSAPENPIFRFSSLHSYPFPGTIKSRDMSWKRHHLIPETFGVKRRRKRGPVESDPLRGEPGSARAAVSELMQLFPRGLFEDALPPIVLRSQVYSLVPDRTVADRQLKELQEQGEIRIVQLGFDLDAHGIIFTEDYRTRVCDCVLKACDGRPYAGAVQKFLASVLPACGDLSFQQDQMTQTFGFRDSEITHLVNAGVLTVRDAGSWWLAVPGAGRFIKYFVKGRQAVLSMVRKAKYRELLLSELLGRRAPVVVRLGLTYHVHDLIGAQLVDCISTTSGTLLRLPET
in vitro kinase assay, phosphorylation of NRAS [1]: phosphorylation of purified recombinant NRAS was enhanced by STK19D89N to a higher extent than by STK19WT | in vitro kinase assay, phosphorylation of NRAS [2]: phosphorylation of purified recombinant NRAS was enhanced by STK19D89N to a higher extent than by STK19WT

B2: Flag-tagged STK19 wild type (STK19-Flag) (protein)
chain: B1 chain with N89D
in vitro kinase assay, phosphorylation of NRAS (HA-NRASQ61R/S89A): mutation of S89 to alanine (S89A) abolished phosphorylation of NRASWT and NRASQ61R | in vitro kinase assay, phosphorylation of NRAS (HA-NRASS89A): mutation of S89 to alanine (S89A) abolished phosphorylation of NRASWT and NRASQ61R | in vitro kinase assay, NRAS preloaded with GDP, GTP or GTPγS [2]: a higher STK19-induced phosphorylation of the GTP- and GTPγS-loaded NRAS than GDP-loaded NRAS | serine phosphorylation of NRAS (immunoblot after NRAS immunoprecipitation, HPMs) [2]: only a marginal increase in phosphorylation of NRASWT was detected

B3: Flag-tagged kinase-dead STK19K317P (protein)
chain: B1 chain with N89D, K317P
phosphorylated serine levels in NRAS (immunoblot) [1]: The upregulation of phosphorylated serine levels in NRAS was also diminished by overexpression of a kinase-dead STK19 K317P mutant
